# Data: the nanobody polyreactivity screen of Harvey et al. (2022)
# Assay: yeast display, Sf9 membrane polyspecificity reagent, FACS + sequencing; frameworks hold sequencing errors
# Outline: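 Using colony PCR, genes from sorted yeast display clones were amplified, then sequenced on MiSeq at 2 × 250 and filtered by CDR length. The clones had been stained with 10% biotinylated, detergent-solubilized Sf9 membrane reagent for 1 hour at 4 °C and sorted by FACS into low and high (top ~1%) gates on anti-HA and streptavidin fluorescence. Polyreactivity labels come from the gate of origin.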
row,Sequence,polyreactivity (PSR sort gate)
1,QVQLVESGGGLVQAGGSLRLSCAASGRIFIGNAMGWYRQAPGKERELVAAISKRGGSTYYADSVKGRFTISRDNAKNTVYLQMNSLKQEDTAVYYCNKESLYREFDYWGQGTQVTVSS,low polyreactivity
2,QVQLVESGGGLVQAGGSLRLSCAASGRIFIGNAMGWYRQAPGKERELVADISYSGGTTYYADSVKGRFTISRENAKNTVYVQMNSLKPVDTAVYYCNKYDPRPVWQGWVWIEYYYWGQGTQVTVSS,low polyreactivity
3,QVQLVESGGGLVQAGGSLRLSCAASGRIFIHYAMGWYRQAPGKERELVAAISWGGGRTYYADSVKGRFTISRDNAKNTVYLQMNSLKPEDTAVYYCAAAGRGSGYDYWGQGTQVTVSS,high polyreactivity
4,QVQLVESGGGLVQAGGSLRLSCAASGRIFIHYAMGWYRQAPGKERELVAAITFNGGSTYYADSVKGRFTISRDNAKNTVYLQMNSLKPEDTAVYYCAARLSKRSGYYYWGQGTQVTVSS,high polyreactivity
5,QVQLVESGGGLVQAGGSLRLSCAASGRIFIINALGWYRQAPGKERELVAAINTGGGTNYADSVKGRFTISRDNAKNTVYLQMNSLKPEDTAVYYCAARTYDYRARHKDGYWGQGTQVTVSS,high polyreactivity
6,QVQLVESGGGLVQAGGSLRLSCAASGRIFILYAMGWYRQAPAKERALVAAISSGGGRTYYADSVKGRFTISRDNAKNTVYLQMNSLKPEDTAVYYCATRRRRTSQRQGYDYWGQGTQVTVSS,high polyreactivity
7,QVQLVESGGGLVQAGGSLRLSCAASGRIFISNAMGWYRQAPGKERELVAAISWRGTRTYYADSVKGRFTISRENAKNTVYLEMNSLKPEVTAVYYCNADRHRSRGMDYWGQGTQVTVSS,high polyreactivity
8,QVQLVESGGGLVQAGGSLRLSCAASGRIFITNAMGWYRQAPGKERELVAVISYIGGRTYYADSVKGRFTISRDNAKNTVYLQMNSLKPEATAVYYCAARRSRPTYYSTGVNYWGQGTQVTVSS,high polyreactivity
9,QVQLVESGGGLVQAGGSLRLSCAASGRIFIVNTMGWYRQAPGKERELVATIDSDGDTNYADSVKGRFTISRDNAKNTVYLQMNSLKPEDTAVYYCAASYTHTLAALKGGRMDYWGQGTQVTVSS,low polyreactivity
10,QVQLVESGGGLVQAGGSLRLSCAASGRIFIVYPMGWYRQAPGKERELVATITRGGSTNYADSVKGRFTISRDNAKNTVYLQMNSLKPEDTAVYYCAKGWTNRYPWPGRFRTLYDYWGQGTQVTVSS,low polyreactivity
11,QVQLVESGGGLVQAGGSLRLSCAASGRIFIVYVMGWYRQAPGKERELVAGITLSGGNTYYADSVKGRFTISRDNAKNTVYLQMNSLKPEDTAVYYCAAGWYGIEMDYWGQGTQVTVSS,high polyreactivity
12,QVQLVESGGGLVQAGGSLRLSCAASGRIFIYNAMGWYRQAPGKEREFVAAISSSGGSTYYADSVKGRFTISRDNAKNTVYLQMNSLKPEDTAVYYCAAGGWPYSGGWFFQPNYDYWGQGTQVTVSS,low polyreactivity
13,QVQLVESGGGLVQAGGSLRLSCAASGRIFIYNAMGWYRQAPGKERELVAAISSGGSTYYADSVKGRFTISRDNANNTVYLQMNSLKAEDTAVYYCAAPRGHGKYYSWGQGTQVTVSS,high polyreactivity
14,QVQLVESGGGLVQAGGSLRLSCAASGRIFIYYAMGWYRQAPGKERELVAAISWSGGRTYYADSVKGRFTISRDNAKNTVYLQMNSLKPEDTAVDYCAGYSFANHGFDYWGQGTQVIVSS,high polyreactivity
15,QVQLVESGGGLVQAGGSLRLSCAASGRIFIYYTMGWYRQAPGKERELVASITWSGGRTYYADSVKGRFTISRDNAKNTVYLQMNSLKPEDTAVYYCNAGYSIGLVAYGYWGQGTQVTLSS,low polyreactivity
16,QVQLVESGGGLVQAGGSLRLSCAASGRIFKENAMGWYRQAPGKERELVAAISSGASTSYADSVKGRFTISRDNAKNTVYLQMNSLKPEDTAVYYCNRGGDLYYPGWLFDYWGQGSQVTVSS,low polyreactivity
